In US20100028347A1:
Values belong to the substance of their own block, whether it stands above or below them.

Assays:
[1] = target: native VEGFR-1 expressed on the cell surface (human) (UniProt P17948); experiment: flow cytometry on PAE-VEGFR-1 cells, FITC goat anti-human IgG
[2] = target: human VEGFR-2 alkaline phosphatase (human) (UniProt P35968); experiment: ELISA: plate coated with huVEGFR-2-AP 100 ng/well, goat anti-human kappa-HRP, O.D. 450
[3] = target: human VEGFR-2 alkaline phosphatase (human) (UniProt P35968); experiment: ELISA: antibody dilutions on plate coated with 1 µg/ml human VEGFR-2 alkaline phosphatase, HRP secondary, O.D. 450
mouse VEGFR-1-AP (mouse) = mouse VEGFR-1-AP (mouse) (UniProt P35969); experiment: ELISA: plate coated with mouse VEGFR-1-AP 100 ng/well, goat anti-rat IgG-HRP, O.D. 450
Chain of mouse VEGFR-1-AP (mouse) (P35969 23-759): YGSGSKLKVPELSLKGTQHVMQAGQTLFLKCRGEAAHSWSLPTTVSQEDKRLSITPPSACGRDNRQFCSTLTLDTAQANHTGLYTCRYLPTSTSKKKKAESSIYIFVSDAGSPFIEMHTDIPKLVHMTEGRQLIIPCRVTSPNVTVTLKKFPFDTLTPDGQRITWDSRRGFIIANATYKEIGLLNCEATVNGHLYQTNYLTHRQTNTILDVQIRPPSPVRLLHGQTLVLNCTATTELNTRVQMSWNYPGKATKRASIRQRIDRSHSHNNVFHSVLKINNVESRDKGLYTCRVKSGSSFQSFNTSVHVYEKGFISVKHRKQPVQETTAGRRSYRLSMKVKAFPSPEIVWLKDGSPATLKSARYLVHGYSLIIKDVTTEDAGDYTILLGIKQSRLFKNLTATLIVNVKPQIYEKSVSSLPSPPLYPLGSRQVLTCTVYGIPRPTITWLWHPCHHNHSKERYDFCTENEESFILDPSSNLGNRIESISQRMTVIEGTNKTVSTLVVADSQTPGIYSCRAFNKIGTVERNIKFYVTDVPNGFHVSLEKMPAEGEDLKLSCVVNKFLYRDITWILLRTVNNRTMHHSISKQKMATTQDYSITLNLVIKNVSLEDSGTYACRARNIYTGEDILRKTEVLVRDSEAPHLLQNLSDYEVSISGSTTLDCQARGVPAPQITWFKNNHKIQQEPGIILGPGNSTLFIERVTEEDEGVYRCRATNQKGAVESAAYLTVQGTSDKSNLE

mouse VEGFR-1 Fc (mouse) = mouse VEGFR-1 Fc (mouse) (UniProt P35969); experiment: ELISA: antibody dilutions on plate coated with 1 µg/ml mouse VEGFR-1 Fc, HRP secondary, O.D. 450
Chain of mouse VEGFR-1 Fc (mouse) (P35969 23-759 limits assumed): as the sequence (P35969 23-759) above

Chain of human VEGFR-2 alkaline phosphatase (human) (P35968 20-764): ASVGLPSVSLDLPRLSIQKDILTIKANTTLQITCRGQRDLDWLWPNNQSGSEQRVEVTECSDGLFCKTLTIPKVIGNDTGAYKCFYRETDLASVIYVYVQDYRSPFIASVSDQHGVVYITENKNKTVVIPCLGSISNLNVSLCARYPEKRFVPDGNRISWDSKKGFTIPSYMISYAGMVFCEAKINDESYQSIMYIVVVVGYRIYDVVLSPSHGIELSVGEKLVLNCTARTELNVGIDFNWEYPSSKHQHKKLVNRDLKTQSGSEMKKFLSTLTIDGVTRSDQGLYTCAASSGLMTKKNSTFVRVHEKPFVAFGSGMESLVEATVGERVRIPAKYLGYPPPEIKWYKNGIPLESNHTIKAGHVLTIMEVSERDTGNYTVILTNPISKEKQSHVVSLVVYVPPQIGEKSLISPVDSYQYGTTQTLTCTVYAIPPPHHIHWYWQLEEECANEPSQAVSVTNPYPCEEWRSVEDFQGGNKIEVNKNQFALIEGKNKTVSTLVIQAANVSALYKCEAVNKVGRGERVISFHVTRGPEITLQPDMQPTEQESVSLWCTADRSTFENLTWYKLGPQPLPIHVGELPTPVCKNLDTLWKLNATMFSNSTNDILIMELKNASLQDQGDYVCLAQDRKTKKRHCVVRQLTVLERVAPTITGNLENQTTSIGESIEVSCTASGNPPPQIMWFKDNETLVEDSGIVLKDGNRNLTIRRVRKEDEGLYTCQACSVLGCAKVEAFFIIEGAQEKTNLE
Chain of native VEGFR-1 expressed on the cell surface (human) (P17948 27-1338): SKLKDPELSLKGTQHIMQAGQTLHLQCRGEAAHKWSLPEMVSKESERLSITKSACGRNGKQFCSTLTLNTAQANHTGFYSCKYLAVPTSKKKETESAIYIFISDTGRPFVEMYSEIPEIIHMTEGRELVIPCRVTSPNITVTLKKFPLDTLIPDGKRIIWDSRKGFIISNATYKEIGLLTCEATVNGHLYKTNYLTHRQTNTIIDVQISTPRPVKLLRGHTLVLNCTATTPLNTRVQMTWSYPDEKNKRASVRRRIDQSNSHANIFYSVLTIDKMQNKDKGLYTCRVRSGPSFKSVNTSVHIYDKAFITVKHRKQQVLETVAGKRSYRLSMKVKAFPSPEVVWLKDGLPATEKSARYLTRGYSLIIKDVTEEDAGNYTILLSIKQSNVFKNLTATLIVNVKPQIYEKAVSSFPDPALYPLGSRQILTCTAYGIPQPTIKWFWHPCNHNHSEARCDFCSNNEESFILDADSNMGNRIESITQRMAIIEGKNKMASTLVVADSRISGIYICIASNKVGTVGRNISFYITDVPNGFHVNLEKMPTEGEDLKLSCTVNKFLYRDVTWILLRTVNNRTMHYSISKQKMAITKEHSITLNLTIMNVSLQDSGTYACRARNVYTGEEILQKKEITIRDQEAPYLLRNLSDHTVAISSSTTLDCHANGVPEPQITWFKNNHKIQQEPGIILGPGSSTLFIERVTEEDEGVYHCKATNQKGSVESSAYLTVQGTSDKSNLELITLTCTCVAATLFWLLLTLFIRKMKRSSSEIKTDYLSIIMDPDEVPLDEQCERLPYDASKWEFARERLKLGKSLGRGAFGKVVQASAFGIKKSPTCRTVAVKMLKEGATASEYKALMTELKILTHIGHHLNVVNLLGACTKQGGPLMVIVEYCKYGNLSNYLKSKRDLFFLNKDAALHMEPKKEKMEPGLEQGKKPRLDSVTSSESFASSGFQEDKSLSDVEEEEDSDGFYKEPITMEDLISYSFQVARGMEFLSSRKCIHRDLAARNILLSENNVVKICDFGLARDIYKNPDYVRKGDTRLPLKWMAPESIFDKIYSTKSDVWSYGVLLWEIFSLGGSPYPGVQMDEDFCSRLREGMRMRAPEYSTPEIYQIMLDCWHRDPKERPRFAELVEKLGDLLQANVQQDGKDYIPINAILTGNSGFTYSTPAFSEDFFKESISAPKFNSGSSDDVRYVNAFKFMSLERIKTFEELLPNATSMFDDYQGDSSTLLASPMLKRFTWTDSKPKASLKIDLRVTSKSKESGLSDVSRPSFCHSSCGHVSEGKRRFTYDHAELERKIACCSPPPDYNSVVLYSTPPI

MFI [1]: 2.6
Substance: Control IgG (antibody)

EC50 (read off the curve) [2]: 8 ng/mL
EC50 (read off the curve) [3]: 8 ng/mL
Substance: 1C11 (antibody)

EC50 (read off the curve) (mouse VEGFR-1-AP (mouse)): 0.8 ng/mL
EC50 (read off the curve) (mouse VEGFR-1 Fc (mouse)): 0.8 ng/mL
Substance: rat anti-mouse VEGFR-1 antibody MF1
